Results: article PMC3715890 (2013)

Biological target: HIF-1alpha PAS-B (235-350) (Homo sapiens, UniProt Q16665)
Assay: ITC

Sequence of HIF-1alpha PAS-B (235-350) (Q16665 235-350): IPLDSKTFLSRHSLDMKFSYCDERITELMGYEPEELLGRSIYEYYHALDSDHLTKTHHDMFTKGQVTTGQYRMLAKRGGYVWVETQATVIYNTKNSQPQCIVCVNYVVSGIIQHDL

Kd: 124 nM
Binder: cyclo(C(S‑S‑Tat)LLFVY) [P1 (Tat-cyclo-CLLFVY)]
